Test results published in patent US20260070961A1.

Legend:
[1] = target: DENV-3 VLP (Dengue virus serotype 3); test: BLI (Octet-HTX), IgG captured on Protein A biosensor, 5 ug/mL DENV-VLP
[2] = target: DENV-3 VLP (Dengue virus serotype 3); test: BLI (Octet-HTX), IgG captured on Protein A biosensor, 5 ug/mL DENV-VLP, 1:1 model

Work on 4G2 (antibody) yielded a response [1] of 0.316 and a koff [2] of 0.000345 s⁻¹.
